Assay results taken from publication PMC9935549, “Mechanisms of the RNA helicases DDX42 and DDX46 in human U2 snRNP assembly” (Nature Communications, 2023).

B1: Flag-DDX42 (full-length) (natural protein)
chain: MNWNKGGPGTKRGFGFGGFAISAGKKEEPKLPQQSHSAFGATSSSSGFGKSAPPQLPSFYKIGSKRANFDEENAYFEDEEEDSSNVDLPYIPAENSPTRQQFHSKPVDSDSDDDPLEAFMAEVEDQAARDMKRLEEKDKERKNVKGIRDDIEEEDDQEAYFRYMAENPTAGVVQEEEEDNLEYDSDGNPIAPTKKIIDPLPPIDHSEIDYPPFEKNFYNEHEEITNLTPQQLIDLRHKLNLRVSGAAPPRPGSSFAHFGFDEQLMHQIRKSEYTQPTPIQCQGVPVALSGRDMIGIAKTGSGKTAAFIWPMLIHIMDQKELEPGDGPIAVIVCPTRELCQQIHAECKRFGKAYNLRSVAVYGGGSMWEQAKALQEGAEIVVCTPGRLIDHVKKKATNLQRVSYLVFDEADRMFDMGFEYQVRSIASHVRPDRQTLLFSATFRKKIEKLARDILIDPIRVVQGDIGEANEDVTQIVEILHSGPSKWNWLTRRLVEFTSSGSVLLFVTKKANAEELANNLKQEGHNLGLLHGDMDQSERNKVISDFKKKDIPVLVATDVAARGLDIPSIKTVINYDVARDIDTHTHRIGRTGRAGEKGVAYTLLTPKDSNFAGDLVRNLEGANQHVSKELLDLAMQNAWFRKSRFKGGKGKKLNIGGGGLGYRERPGLGSENMDRGNNNVMSNYEAYKPSTGAMGDRLTAMKAAFQSQYKSHFVAASLSNQKAGSSAAGASGWTSAGSLNSVPTNSAQQGHNSPDSPVTSAAKGIPGFGNTGNISGAPVTYPSAGAQGVNNTASGNNSREGTGGSNGKRERYTENRGSSRHSHGETGNRHSDSPRHGDGGRHGDGYRHPESSSRHTDGHRHGENRHGGSAGRHGENRGANDGRNGESRKEAFNRESKMEPKMEPKVDSSKMDKVDSKTDKTADGFAVPEPPKRKKSRWDS
notes: DDX42, human, full-length cDNA; N-plug residues 69-81, helix alpha-3 114-135, helices alpha-2/alpha-1 145-167, helicase domain 207-643; source: HEK293F, transfected (pCAG): co-expressed with the SF3b core; alone as bait in lysate; not shown: Flag, N-terminal, kept
B2: Flag-DDX46 (natural protein)
chain: MGRESRHYRKRSASRGRSGSRSRSRSPSDKRSKRGDDRRSRSRDRDRRRERSRSRDKRRSRSRDRKRLRRSRSRERDRSRERRRSRSRDRRRSRSRSRGRRSRSSSPGNKSKKTENRSRSKEKTDGGESSKEKKKDKDDKEDEKEKDAGNFDQNKLEEEMRKRKERVEKWREEQRKKAMENIGELKKEIEEMKQGKKWSLEDDDDDEDDPAEAEKEGNEMEGEELDPLDAYMEEVKEEVKKFNMRSVKGGGGNEKKSGPTVTKVVTVVTTKKAVVDSDKKKGELMENDQDAMEYSSEEEEVDLQTALTGYQTKQRKLLEPVDHGKIEYEPFRKNFYVEVPELAKMSQEEVNVFRLEMEGITVKGKGCPKPIKSWVQCGISMKILNSLKKHGYEKPTPIQTQAIPAIMSGRDLIGIAKTGSGKTIAFLLPMFRHIMDQRSLEEGEGPIAVIMTPTRELALQITKECKKFSKTLGLRVVCVYGGTGISEQIAELKRGAEIIVCTPGRMIDMLAANSGRVTNLRRVTYVVLDEADRMFDMGFEPQVMRIVDNVRPDRQTVMFSATFPRAMEALARRILSKPIEVQVGGRSVVCSDVEQQVIVIEEEKKFLKLLELLGHYQESGSVIIFVDKQEHADGLLKDLMRASYPCMSLHGGIDQYDRDSIINDFKNGTCKLLVATSVAARGLDVKHLILVVNYSCPNHYEDYVHRAGRTGRAGNKGYAYTFITEDQARYAGDIIKALELSGTAVPPDLEKLWSDFKDQQKAEGKIIKKSSGFSGKGFKFDETEQALANERKKLQKAALGLQDSDDEDAAVDIDEQIESMFNSKKRVKDMAAPGTSSVPAPTAGNAEKLEIAKRLALRINAQKNLGIESQDVMQQATNAILRGGTILAPTVSAKTIAEQLAEKINAKLNYVPLEKQEEERQDGGQNESFKRYEEELEINDFPQTARWKVTSKEALQRISEYSEAAITIRGTYFPPGKEPKEGERKIYLAIESANELAVQKAKAEITRLIKEELIRLQNSYQPTNKGRYKVL
notes: DDX46, human; source: HEK293F, overexpressed, purified (anti-Flag M2, Hitrap Heparin)

Target: T1, SF3b core complex, 6xHis-tagged (SF3B1 454–1304, 6xHis-SF3B3, SF3B5, PHF5A) (human, UniProt O75533 454-1304; Q15393 1-1217; Q9BWJ5 1-86; Q7RTV0 1-110)
T1 construct: SF3B1, human, residues 454-1304; SF3B3, human, full-length cDNA; SF3B5, human, full-length cDNA; PHF5A, human, full-length cDNA; the 6xHis tag replaces the N-terminal Twin-Strep tag of SF3B3, so it is probably N-terminal; also called SF3b core (6xHis-tagged); source: HEK293F, co-transfected, purified; prepared as the SF3b core except that the Strep-tag on SF3B3 was replaced by a 6xHis tag; …
Experiment: BLI; 6xHis-tagged SF3b core (20 µg/mL) captured on Ni-NTA biosensors; Flag-DDX42 or Flag-DDX46 as analyte; lysis buffer (20 mM HEPES-KOH pH 7.9, 150 mM NaCl, 1.5 mM MgCl2, 0.05% NP-40); about 100 s association, 100 s dissociation; 1:1 model; apparent constants
Conditions: both partners purified

T1 sequence (O75533 454-1304, chain 1 of 4): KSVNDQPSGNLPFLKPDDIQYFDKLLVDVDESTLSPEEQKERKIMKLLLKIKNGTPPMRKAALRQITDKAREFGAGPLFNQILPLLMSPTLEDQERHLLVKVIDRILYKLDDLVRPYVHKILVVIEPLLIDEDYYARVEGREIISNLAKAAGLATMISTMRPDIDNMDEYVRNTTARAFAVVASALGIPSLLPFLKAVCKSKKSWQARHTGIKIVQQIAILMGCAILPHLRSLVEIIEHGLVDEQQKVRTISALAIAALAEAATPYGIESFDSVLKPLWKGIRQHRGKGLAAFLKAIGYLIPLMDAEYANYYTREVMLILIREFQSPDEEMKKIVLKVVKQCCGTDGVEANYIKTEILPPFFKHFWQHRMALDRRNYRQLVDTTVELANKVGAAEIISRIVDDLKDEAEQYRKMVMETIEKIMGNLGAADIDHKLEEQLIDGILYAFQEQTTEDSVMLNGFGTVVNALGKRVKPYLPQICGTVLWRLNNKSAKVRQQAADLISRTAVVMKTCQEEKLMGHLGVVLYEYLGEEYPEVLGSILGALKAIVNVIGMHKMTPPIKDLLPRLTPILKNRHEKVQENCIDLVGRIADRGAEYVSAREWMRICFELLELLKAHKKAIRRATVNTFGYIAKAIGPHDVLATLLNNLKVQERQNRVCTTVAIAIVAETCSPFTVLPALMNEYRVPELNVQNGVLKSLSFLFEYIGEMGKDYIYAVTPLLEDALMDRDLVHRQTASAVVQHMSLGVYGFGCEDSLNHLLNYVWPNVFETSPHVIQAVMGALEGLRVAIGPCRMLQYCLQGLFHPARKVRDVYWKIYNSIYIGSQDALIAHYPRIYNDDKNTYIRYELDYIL
T1 sequence (Q15393 whole entry, chain 2 of 4, the tested form may be a part): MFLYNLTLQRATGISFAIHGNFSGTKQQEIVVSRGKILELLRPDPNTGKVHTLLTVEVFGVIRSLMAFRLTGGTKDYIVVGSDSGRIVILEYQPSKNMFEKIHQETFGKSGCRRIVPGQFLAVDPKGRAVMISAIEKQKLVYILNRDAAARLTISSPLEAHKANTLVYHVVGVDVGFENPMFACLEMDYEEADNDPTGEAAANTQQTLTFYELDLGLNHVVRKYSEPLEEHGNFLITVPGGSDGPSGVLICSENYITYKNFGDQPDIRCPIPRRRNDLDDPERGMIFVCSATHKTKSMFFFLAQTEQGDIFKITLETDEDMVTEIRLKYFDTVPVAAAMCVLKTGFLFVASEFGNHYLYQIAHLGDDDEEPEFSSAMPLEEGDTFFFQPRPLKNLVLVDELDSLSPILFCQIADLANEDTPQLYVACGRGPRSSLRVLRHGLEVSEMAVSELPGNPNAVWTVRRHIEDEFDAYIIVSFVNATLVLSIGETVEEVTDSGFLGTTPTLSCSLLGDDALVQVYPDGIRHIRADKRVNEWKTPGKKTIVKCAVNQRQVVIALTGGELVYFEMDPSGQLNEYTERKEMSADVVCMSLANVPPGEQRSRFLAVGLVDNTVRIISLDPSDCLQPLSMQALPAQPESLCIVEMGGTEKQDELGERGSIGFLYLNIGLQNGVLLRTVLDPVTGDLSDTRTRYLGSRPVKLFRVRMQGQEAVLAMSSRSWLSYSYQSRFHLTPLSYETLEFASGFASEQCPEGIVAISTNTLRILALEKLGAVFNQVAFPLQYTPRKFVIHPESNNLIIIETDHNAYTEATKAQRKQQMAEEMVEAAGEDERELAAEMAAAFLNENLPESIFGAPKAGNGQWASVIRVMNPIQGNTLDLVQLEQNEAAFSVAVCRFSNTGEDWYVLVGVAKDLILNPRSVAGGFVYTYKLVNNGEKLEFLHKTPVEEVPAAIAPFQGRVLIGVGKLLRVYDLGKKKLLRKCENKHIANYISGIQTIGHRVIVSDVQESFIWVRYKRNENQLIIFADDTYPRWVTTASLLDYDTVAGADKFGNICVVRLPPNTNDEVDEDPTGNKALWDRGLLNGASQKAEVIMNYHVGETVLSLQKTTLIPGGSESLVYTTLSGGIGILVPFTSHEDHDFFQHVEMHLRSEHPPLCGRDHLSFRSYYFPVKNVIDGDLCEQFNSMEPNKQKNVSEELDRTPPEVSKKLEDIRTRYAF
T1 sequence (Q9BWJ5 whole entry, chain 3 of 4, the tested form may be a part): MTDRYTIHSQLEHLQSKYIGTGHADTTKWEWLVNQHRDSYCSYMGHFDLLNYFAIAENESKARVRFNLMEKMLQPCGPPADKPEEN
T1 sequence (Q7RTV0 whole entry, chain 4 of 4, the tested form may be a part): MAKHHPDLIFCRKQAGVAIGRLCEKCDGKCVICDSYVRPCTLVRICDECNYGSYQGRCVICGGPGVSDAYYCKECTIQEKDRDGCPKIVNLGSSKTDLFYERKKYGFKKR

| Binder | Kd [nM] |
| --- | --- |
| B1 | 23 |
| B2 | 66 |
